From paper PMC8528861, “Structural and functional analysis of target recognition by the lymphocyte adaptor protein LNK” (Nature Communications, 2021)
Where no end group is shown, it is not given here. [ ]: non-standard residue; d: D form. pY = N[C@@H](Cc1ccc(OP(=O)(O)O)cc1)C(=O)O

Tests used:
[1] = target: T1, M. musculus LNK SH2 domain (residues 324–446), wild type (mouse, UniProt O09039 324-446); test: SPR; competition: biotinylated IL6ST pY757 peptide immobilised on a streptavidin chip; 0.1–0.5 μM WT LNK SH2 domain pre-incubated with phosphopeptide and flowed over; 10 mM HEPES pH 7.4, 150 mM NaCl, 3.4 mM EDTA, 0.005% Tween 20; response normalised to LNK only, IC50 fit; conditions: both partners purified
T1 construct: LNK (SH2B3), mouse, SH2 domain with N-terminal helix, residues 324-446; vector pET-50b(+); also called WT LNK SH2; SH2B3 SH2 domain; source: E. coli (tuner (DE3), BL21(DE3) or C43), purified (His-Tag resin, TEV cleavage, SEC); not shown: NusA, N-terminal, cleaved
T1 sequence (O09039 324-446): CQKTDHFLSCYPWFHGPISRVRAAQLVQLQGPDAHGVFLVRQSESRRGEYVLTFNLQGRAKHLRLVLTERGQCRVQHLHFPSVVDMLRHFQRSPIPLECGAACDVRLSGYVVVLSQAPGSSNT

[2] = target: T1, M. musculus LNK SH2 domain (residues …); test: as above; conditions: both partners purified; remark: listed apart in the source

IC50 [1] | IC50 [2] | Binder
661 nM | – | PHLK[pY]LYLVVS (also: phosphotyrosine at 454 (Y5 or Y7), EPOR, intracellular site Y454) [EPOR pY454 phosphopeptide]
138 nM | 60 nM | FTPD[pY]ELLTEND (JAK2, stretch around Y813; also called WT pY813 peptide) [JAK2 pY813 phosphopeptide (12-mer)]
> 10000 nM | – | LPLS[pY]WQQP (MPL (TPO receptor), intracellular site Y631; also called TPOR pY631) [MPL pY631 phosphopeptide]
– | > 5000 nM | FTPD[pY]RLLTEND [JAK2 pY813 peptide mutant +1R]
